B1: Adv2: cytoplasmic viral protein Adv2 expressed as a Scn fusion and cleaved from Scn (protein, UniProt P68978 18-159, looked up)
Early E3 18.5 kDa glycoprotein: AKKVEFKEPACNVTFKSEANECTTLIKCTTEHEKLIIRHKDKIGKYAVYAIWQPGDTNDYNVTVFQGENRKTFMYKFPFYEMCDITMYMSKQYKLWPPQKCLENTGTFCSTALLITALALVCTLLYLKYKSRRSFIDEKKMP
modifications: expressed as Scn fusion, cleaved
B2: HMOX1: cytoplasmic enzyme, HMOX1, expressed as a Scn fusion and cleaved from Scn (protein, UniProt P09601 1-288, looked up)
Heme oxygenase 1: MERPQPDSMPQDLSEALKEATKEVHTQAENAEFMRNFQKGQVTRDGFKLVMASLYHIYVALEEEIERNKESPVFAPVYFPEELHRKAALEQDLAFWYGPRWQEVIPYTPAMQRYVKRLHEVGRTEPELLVAHAYTRYLGDLSGGQVLKKIAQKALDLPSSGEGLAFFTFPNIASATKFKQLYRSRMNSLEMTPAVRQRVIEEAKTAFLLNIQLFEELQELLTHDTKDQSPSRAPGLRQRASNKVQDSAPVETPRGKPPLNTRSQAPLLRWVLTLSFLVATVAVGLYAM
modifications: expressed as Scn fusion, cleaved

Experiment: SDS PAGE analysis of Scn fusion protein before and after cleavage
Format: physicochemical
Conditions: fusion protein cleaved from Scn, expressed in mammalian cell culture
Excerpt: The cloned knottin or library was cotransfected into HEK293 cells and media was collected as described (“Daedalus: A Robust, Turnkey Platform for Rapid Production of Decigram Quantities of Active Recombinant Proteins in Human Cell Lines Using Novel Lentiviral Vectors.” Bandaranayake A. D., et al., Nucleic Acids Res. (2011) 39(21):e143). Fusion protein was isolated using nickel IMAC and cleaved with recombinant TEV protease. Excess siderocalin was removed via size exclusion chromatography, a process which also allowed the buffer to be switched to 10 mM ammonium formate. The knottin containing fractions were then lyophilized.
(§1) FIG. 19 depicts the expression of a Scn fusion with a cytoplasmic viral protein Adv2 and the corresponding SDS PAGE analysis according to one aspect of the present disclosure. […] Additionally this fusion protein has further utility because it can be used to raise antibodies against the viral antigen in rats, mice or rabbits using the corresponding Scn ortholog.
as §1, with “21” for “19”, “knottin protein, Imperatoxin,” for “cytoplasmic viral protein Adv2”, “Additionally,” for “Additionally”

Row | Molecule | stability of the protein after separation from Scn
1 | B1 | stable even after separation from Scn
2 | B2 | stable even after separation from Scn
